Source: publication PMC4698195 (Carbohydrate research, 2015)

Assays:
[1] = target: UDP-N-acetylglucosamine (UDP-GlcNAc) 2-epimerase (NmSacA) (Neisseria meningitidis, UniProt A0A0U1RGY0); format: biochemical
[2] = test system: CC(=O)N[C@@H]1[C@@H](OP(=O)(O)OP(=O)(O)OC[C@H]2O[C@@H](n3ccc(=O)[nH]c3=O)[C@H](O)[C@@H]2O)O[C@H](CO)[C@@H](O)[C@@H]1O; assay: purified protein
[3] = test system: CCC(=O)N[C@@H]1[C@@H](OP(=O)(O)OP(=O)(O)OC[C@H]2O[C@@H](n3ccc(=O)[nH]c3=O)[C@H](O)[C@@H]2O)O[C@H](CO)[C@@H](O)[C@@H]1O; assay: purified protein
[4] = test system: O=C(CO)N[C@@H]1[C@@H](OP(=O)(O)OP(=O)(O)OC[C@H]2O[C@@H](n3ccc(=O)[nH]c3=O)[C@H](O)[C@@H]2O)O[C@H](CO)[C@@H](O)[C@@H]1O; assay: purified protein
[5] = test system: CC(=O)N[C@@H]1[C@@H](OP(=O)(O)OP(=O)(O)OC[C@H]2O[C@@H](N3CCC(=O)NC3=O)[C@H](O)[C@@H]2O)O[C@H](CO)[C@@H](O)[C@@H]1O; assay: purified protein
[6] = test system: CC(=O)N[C@H]1[C@@H](OP(=O)(O)OP(=O)(O)OC[C@H]2O[C@@H](n3ccc(=O)[nH]c3=O)[C@H](O)[C@@H]2O)O[C@H](CO)[C@@H](O)[C@@H]1O; assay: purified protein

Sequence of UDP-N-acetylglucosamine (UDP-GlcNAc) 2-epimerase (NmSacA) (A0A0U1RGY0 whole entry): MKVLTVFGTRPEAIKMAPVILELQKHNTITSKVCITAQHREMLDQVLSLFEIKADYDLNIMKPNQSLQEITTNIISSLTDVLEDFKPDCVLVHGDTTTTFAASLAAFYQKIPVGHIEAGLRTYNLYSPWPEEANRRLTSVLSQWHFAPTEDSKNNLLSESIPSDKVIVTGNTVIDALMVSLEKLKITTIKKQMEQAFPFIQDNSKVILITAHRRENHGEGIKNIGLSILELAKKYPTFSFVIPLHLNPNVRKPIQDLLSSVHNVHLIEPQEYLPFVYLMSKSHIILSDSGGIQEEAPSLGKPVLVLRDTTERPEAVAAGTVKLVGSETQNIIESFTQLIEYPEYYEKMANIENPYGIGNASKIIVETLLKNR

| Ki [1] [mM] | Compound | Km [2] [mM] | kcat [2] [s⁻¹] | kcat/Km [2] [M⁻¹ s⁻¹] | Km [3] [mM] | kcat [3] [s⁻¹] | kcat/Km [3] [M⁻¹ s⁻¹] | Km [4] [mM] | kcat [4] [s⁻¹] | kcat/Km [4] [M⁻¹ s⁻¹] | Km [5] [mM] | kcat [5] [s⁻¹] | kcat/Km [5] [M⁻¹ s⁻¹] | Km [6] [mM] | kcat [6] [s⁻¹] | kcat/Km [6] [M⁻¹ s⁻¹] |
| --- | --- | --- | --- | --- | --- | --- | --- | --- | --- | --- | --- | --- | --- | --- | --- | --- |
| 14 | CC(=O)NC1=CO[C@H](CO)[C@@H](O)[C@@H]1O [D, 2-acetamidoglucal] | – | – | – | – | – | – | – | – | – | – | – | – | – | – | – |
| 0.8 | O=c1ccn([C@@H]2O[C@H](COP(=O)(O)OP(=O)(O)O)[C@@H](O)[C@H]2O)c(=O)[nH]1 [UDP] | – | – | – | – | – | – | – | – | – | – | – | – | – | – | – |
| – | UDP-N-acetylglucosamine (UDP-GlcNAc) 2-epimerase (NmSacA) (Neisseria meningitidis Z2491) | 5.2 ± 1.1 | 52 ± 5 | 10000 | 51 ± 5.0 | 7.8 ± 0.3 | 150 | 20 ± 1.9 | 4.2 ± 0.2 | 210 | 63 ± 7.0 | 6.7 ± 0.5 | 110 | 3.6 ± 0.5 | 31 ± 2 | 8600 |
